In patent publication US20170283834A1, “Processes for Producing A Fermentation Product Using A Fermenting Organism” (Novozymes A/S, priority 2014, published 2017):
Substitutions are numbered along the chain they refer to. Names may count otherwise.

B1: JTP091: protease variant of SEQ ID NO: 3: D79L/S87P/A112P/T124V/D142L (protein, listed as Thermoascus aurantiacus)
chain: MRLVASLTALVALSVPVFPAAVNVKRASSYLEITLSQVSNTLIKAVVQNTGSDELSFVHLNFFKDPAPVKKVSVYRDGSEVQFEGILSRYKSTGLSRDAFTYLAPGESVEDVFDIASTYDLTSGGPVTIRTEGVVPYATANSTDIAGYISYSSNVLTIDVDGAAAATVSKAITPLDRRTRISSCSGSRQSALTTALRNAASLANAAADAAQSGSASKFSEYFKTTSSSTRQTVAARLRAVAREASSSSSGATTYYCLDPYGYCSPNVLAYTLPSYNIIANCDIFYTYLPPLTSTCHAQDQAVTALHEFTHAPGVYSPGTLDLAYGYQAAMGLSSSQAVMNADTYALYANAIYLGC
B2: JTP116: protease variant of SEQ ID NO: 3: D79L/Y82F/S87P/A112P/T124V/D142L (protein, listed as Thermoascus aurantiacus)
chain: B1 chain with Y260F
B3: JTP101: protease variant of SEQ ID NO: 3: A27K/D79L/S87P/A112P/T124V/D142L (protein, listed as Thermoascus aurantiacus)
chain: B1 chain with A205K
B4: JTP099: protease variant of SEQ ID NO: 3: D79L/P81R/S87P/A112P/D142L (protein, listed as Thermoascus aurantiacus)
chain: B1 chain with P259R, V302T
B5: JTP096: protease variant of SEQ ID NO: 3: T46R/D79L/S87P/T116V/D142L (protein, listed as Thermoascus aurantiacus)
chain: B1 chain with T224R, P290A, T294V, V302T
B6: JTP117: protease variant of SEQ ID NO: 3: D79L/Y82F/S87P/A112P/T124V/D142L (protein, listed as Thermoascus aurantiacus)
chain: B1 chain with Y260F
B7: JTP127: protease variant of SEQ ID NO: 3: D79L/S87P/A112P/T124V/A126V/D142L (protein, listed as Thermoascus aurantiacus)
chain: B1 chain with A304V
B8: Pfu S: commercial Pyrococcus furiosus protease purchased from Takara Bio Inc, (Japan); SEQ ID NO: 13 (protein, listed as Pyrococcus furiosus)
chain: AELEGLDESAAQVMATYVWNLGYDGSGITIGIIDTGIDASHPDLQGKVIGWVDFVNGRSYPYDDHGHGTHVASIAAGTGAASNGKYKGMAPGAKLAGIKVLGADGSGSISTIIKGVEWAVDNKDKYGIKVINLSLGSSQSSDGTDALSQAVNAAWDAGLVVVVAAGNSGPNKYTIGSPAAASKVITVGAVDKYDVITSFSSRGPTADGRLKPEVVAPGNWIIAARASGTSMGQPINDYYTAAPGTSMATPHVAGIAALLLQAHPSWTPDKVKTALIETADIVKPDEIADIAYGAGRVNAYKAINYDNYAKLVFTGYVANKGSQTHQFVISGASFVTATLYWDNANSDLDLYLYDPNGNQVDYSYTAYYGFEKVGYYNPTDGTWTIKVVSYSGSANYQVDVVSDGSLSQPGSS
modifications: mat_peptide (1)..(412) Pyrococcus furiosus protease (Pfu)
B9: JTP082: protease variant of SEQ ID NO: 3: ΔS5/D79L/S87P/A112P/D142L (protein, listed as Thermoascus aurantiacus)
chain: MRLVASLTALVALSVPVFPAAVNVKRASSYLEITLSQVSNTLIKAVVQNTGSDELSFVHLNFFKDPAPVKKVSVYRDGSEVQFEGILSRYKSTGLSRDAFTYLAPGESVEDVFDIASTYDLTSGGPVTIRTEGVVPYATANSTDIAGYISYSSNVLTIDVDGAAAATVSKAITPLDRRTRISCSGSRQSALTTALRNAASLANAAADAAQSGSASKFSEYFKTTSSSTRQTVAARLRAVAREASSSSSGATTYYCLDPYGYCSPNVLAYTLPSYNIIANCDIFYTYLPPLTSTCHAQDQATTALHEFTHAPGVYSPGTLDLAYGYQAAMGLSSSQAVMNADTYALYANAIYLGC

Key:
Format in all cases: biochemical
azo-casein = assay: Remaining activity assay of protease variants (azo-casein); settings: pH 4.5, 4° C. as reference; for Remaining activity 80° C.: 10 min at 80° C.; for Remaining activity 84° C.: 10 min at 84° C.
Description: Yeast clones on SC-glucose were inoculated to a well of a 96-well micro titre plate and cultivated at 28° C. for 3 days. Protease activity was measured at 65° C. using azo-casein (Megazyme) after incubating the culture supernatant in 20 mM sodium acetate buffer, pH 4.5, for 10 min at a certain temperature (80° C. or 84° C. with 4° C. as a reference) to determine the remaining activity. The clones with higher remaining activity than the parental variant were selected and the sequence was determined.
20 microL of samples were mixed with 150 microL of substrate solution (4 ml of 12.5% azo-casein in ethanol in 96 ml of 20 mM sodium acetate, pH 4.5, containing 0.01% triton-100 and 0.25 mM ZnSO4) and incubated for 4 hours or longer.
After adding 20 microL/well of 100% trichloroacetic acid (TCA) solution, the plate was centrifuge and 100 microL of supernatants were pipette out to measure A440.

zein [1] = assay: Relative activity assay of protease variants (zein micro titer plate); settings: Table 4
Outline: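 Relative activity is the ratio of zein clearance (A630 turbidity) at a higher versus lower temperature, e.g. 60/65 °C or 70/80 °C. Supernatants from 3-day yeast cultures applied to 0.05-0.1% zein agar in 20 mM sodium acetate pH 4.5 with zinc, incubated at least 4 h.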

zein [2] = assay: Thermostability of Protease Pfu (Relative Activity, methods of Example 2); settings: pH 4.5
Description: Yeast clones on SC-glucose were inoculated to a well of a 96-well micro titre plate containing YPD+Zn medium and cultivated at 28° C. for 3 days. The culture supernatants were applied to a 96-well zein micro titer plate and incubated at at least 2 temperatures (ex. 60° C. and 65° C., 70° C. and 75° C., 70° C. and 80° C.) for more than 4 hours or overnight. The turbidity of zein in the plate was measured as A630 and the relative activity (higher/lower temperatures) was determined as an indicator of thermoactivity improvement. The clones with higher relative activity than the parental variant were selected and the sequence was determined.
The thermostability of the Pyrococcus furiosus protease (Pfu S) purchased from Takara Bio Inc, (Japan) was tested using the same methods as in Example 2.

| Molecule | Remaining activity 80° C. (azo-casein) [%] | Remaining activity 84° C. (azo-casein) [%] | also measured |
| --- | --- | --- | --- |
| B1 | 43 |  | Relative activity 75° C./65° C. (zein [1]): 154% |
| B2 | 59 |  |  |
| B3 | 81 |  |  |
| B4 |  | 80 |  |
| B5 |  | 67 |  |
| B6 | 94 |  |  |
| B7 | 53 |  |  |
| B8 |  |  | thermostability (Relative Activity) 80° C./70° C. (zein [2]): 110%; thermostability (Relative Activity) 90° C./70° C. (zein [2]): 103% |
| B9 |  | 53 | Relative activity 75° C./65° C. (zein [1]): 129% |
